From paper PMC4341510, “Jasmonate-responsive expression of paclitaxel biosynthesis genes in Taxus cuspidata cultured cells is negatively regulated by the bHLH transcription factors TcJAMYC1, TcJAMYC2, and TcJAMYC4”

Experiments:
TcJAMYC1 [1] = molecular target: T1, TcJAMYC1 (Taxus cuspidata (cell culture line P991), UniProt B9VVN9 1-660); assay: competition EMSA; vs CATGTG probe; competes better than CATGTG self; 20 mM HEPES-KOH pH 7.9, 20% glycerol, 0.2 mM EDTA, 100 mM KCl, 0.5 mM PMSF, 1 mM DTT, 15 mM MgCl2, 5 ug BSA; 175 fmol probe in 20 ul; gel 7% PAGE, 0.5X TBE, 4 C; binding temperature not stated; details: protein: recombinant; tags: N-terminal 6xHis (pDEST17); chain copies: 2; label: 32P by Klenow fill-in when probe; 5' overhang 4 nt at both ends; labeled probe filled in
T1 sequence (B9VVN9 entry or part of it): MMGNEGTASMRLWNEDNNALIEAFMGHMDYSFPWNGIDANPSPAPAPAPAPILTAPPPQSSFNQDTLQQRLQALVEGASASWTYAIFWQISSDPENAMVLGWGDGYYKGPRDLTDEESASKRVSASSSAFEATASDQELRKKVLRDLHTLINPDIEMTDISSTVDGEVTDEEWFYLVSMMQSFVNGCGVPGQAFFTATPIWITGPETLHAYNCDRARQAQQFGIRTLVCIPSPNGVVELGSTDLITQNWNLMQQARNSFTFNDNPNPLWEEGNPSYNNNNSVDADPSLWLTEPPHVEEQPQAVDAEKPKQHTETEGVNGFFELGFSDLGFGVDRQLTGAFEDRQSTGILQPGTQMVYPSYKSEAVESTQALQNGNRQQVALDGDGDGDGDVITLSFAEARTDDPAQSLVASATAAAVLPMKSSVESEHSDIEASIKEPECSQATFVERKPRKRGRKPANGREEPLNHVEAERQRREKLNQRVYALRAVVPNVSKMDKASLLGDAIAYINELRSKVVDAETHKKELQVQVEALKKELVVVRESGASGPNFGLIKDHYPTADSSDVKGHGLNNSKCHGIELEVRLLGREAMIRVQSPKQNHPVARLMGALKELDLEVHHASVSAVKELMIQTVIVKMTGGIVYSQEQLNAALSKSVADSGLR

TcJAMYC1 [2] = molecular target: T1, TcJAMYC1; assay: EMSA; 25-100 ng protein; 20 mM HEPES-KOH pH 7.9, 20% glycerol, 0.2 mM EDTA, 100 mM KCl, 0.5 mM PMSF, 1 mM DTT, 15 mM MgCl2, 5 ug BSA; 175 fmol probe in 20 ul; gel 7% PAGE, 0.5X TBE, 4 C; binding temperature not stated; details: protein: recombinant; tags: N-terminal 6xHis (pDEST17); chain copies: 2; label: 32P by Klenow fill-in when probe; 5' overhang 4 nt at both ends; labeled probe filled in
GUS (beta-glucuronidase) = GUS (beta-glucuronidase) (UniProt P05804 1-603); assay: EMSA; 25-75 ng protein; 20 mM HEPES-KOH pH 7.9, 20% glycerol, 0.2 mM EDTA, 100 mM KCl, 0.5 mM PMSF, 1 mM DTT, 15 mM MgCl2, 5 ug BSA; 175 fmol probe in 20 ul; gel 7% PAGE, 0.5X TBE, 4 C; binding temperature not stated; details: protein: recombinant; label: 32P by Klenow fill-in when probe; 5' overhang 4 nt at both ends; labeled probe filled in
Chain of GUS (beta-glucuronidase) (P05804 whole entry): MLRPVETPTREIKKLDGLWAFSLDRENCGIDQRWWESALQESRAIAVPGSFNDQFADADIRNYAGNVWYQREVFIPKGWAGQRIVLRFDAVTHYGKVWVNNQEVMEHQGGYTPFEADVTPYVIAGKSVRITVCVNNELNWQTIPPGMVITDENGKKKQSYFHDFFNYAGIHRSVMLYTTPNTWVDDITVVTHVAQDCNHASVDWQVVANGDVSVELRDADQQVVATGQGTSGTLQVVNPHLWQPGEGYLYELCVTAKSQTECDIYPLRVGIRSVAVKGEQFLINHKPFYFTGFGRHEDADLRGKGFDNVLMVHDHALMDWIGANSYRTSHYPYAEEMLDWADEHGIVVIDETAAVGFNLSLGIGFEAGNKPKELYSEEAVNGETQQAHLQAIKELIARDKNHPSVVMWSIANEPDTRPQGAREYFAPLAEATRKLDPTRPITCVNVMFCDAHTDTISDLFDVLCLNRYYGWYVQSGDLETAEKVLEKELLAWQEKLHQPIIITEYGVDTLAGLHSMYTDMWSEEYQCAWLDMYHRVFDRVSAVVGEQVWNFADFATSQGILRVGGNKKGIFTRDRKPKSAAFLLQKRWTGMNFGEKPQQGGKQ

TcJAMYC1 [3] = molecular target: T1, TcJAMYC1; assay: as above; details: protein: recombinant; tags: N-terminal 6xHis (pDEST17); chain copies: 2; label: 32P by Klenow fill-in when probe; 5' overhang 4 nt at both ends; labeled probe filled in

B1: CACGTG E-box (dsDNA)
DNA 1: TAGCATCGATCGCACGTGATCGATCG
DNA 2: CGTACGATCGATCACGTGCGATCGAT
- binding result (TcJAMYC1 [1]): binds

B2: CATGTG E-box (dsDNA)
DNA 1: TAGCGCATCGATCATGTGATCGATCG
DNA 2: CGTACGATCGATCACATGATCGATGC
- binding result (TcJAMYC1 [2]): binds
- binding result (GUS (beta-glucuronidase)): no binding

B3: Mutated (no E-box) (dsDNA)
DNA 1: TAGCGCATCGATAAGCCTATCGATCG
DNA 2: CGTACGATCGATAGGCTTATCGATGC
- binding result (TcJAMYC1 [3]): no binding
